Here are results for 21 sequences from the DeepSol protein solubility set.

The data set is described as follows: soluble on expression in E. coli; label from the status in PepcDB or PDB records.
On to “MSKDAVSILFLGIDDNEGRRKNGQTTEHSRTDSMILSTFSPEKRQIRLLSIPRDTISYIPKVGYYDKITHAHAYGGPVAAMDSVEATLNVPVDYYVRVNMDAFVEAVDELGGIYYDVPYDLNEPNTDDSGRIKIKKGYQKLNGDEALAVARTRHHDSDLKRGERQMDLIKLLFQKAKSLDSYDKLDDLVQIVGKNAKHNLTSSEIKSLASMYLSDDIEFKKSQLKGKDDYLQNIYYYNPSVSSIMKYSNILRSDLGLSKITDKDEFLDQRVIKHYGTLIPLTPLDQSLLKNNQKDSSSSDDNNDDSTNSDNNNNIQSSEENSSNSNEGIDQSSQGSTQSDNYNQTNSSNSFNNNQDQMNQIYLEHHHHHH”, for which the “soluble on expression in E. coli” value is “soluble”.

As for “ASQIERNLARISAEKNRLDTILRGMGEGLMVSDAGGTVTLVNPAFLELFGLTQSVEGRQIIEIARFPELHETFRAVVSSRSEHVEEMTLPLGDEKQVLTHWVPLMEEDELRGVVAVFHDIS”, the “soluble on expression in E. coli” value is reported as “not soluble”. The entry for “MAEHDLTARMAGHLDCHLVLPLLEFLQERHLYPEEEILEAKIRLLRGTNMVDYAMDIHKSRYGTDDVPEDMVKRRAEVVSRLTSLGEAIDNIHQNQQIGPDQIETLYQYAKFQFDCGNYSFAAQYLHQYRALCTNIERSLSALWGKLAAEILMQNWDVALEELNRLKEIIDSKNFSSPLNQLQNRIWLMHWSIFIFYNHENGRNGIIDLFFQERYLNAIQTNAPHLLRYLATAVVVNKRRRNMLKELIKVIQQEQHSYKDPITEFLECLFVNYDFDGAQQKLIECEEVILNDPFLGKRIEEGNSITVPLRDEFLENARLFIFETYCRIHRSIDIGMLSQKLNMRYDEGELWIMNLVRNSKLDAKIDSVSGTLIMTTNHVNIHEQFIESLKNLNMRTSMLAKNIVEPAQAMQQATR” is “not soluble”; for “YGNMTEDHVMHLLQNADPLKVYPPLKGSFPENLRHLKNTMETIDWKVFESWMHHWLLFEMSRHSLEQKPTDAPPK” it is “soluble”; for “MLTRCQARLLGLTSGEDGGASGSSTSSVPQSPTGVATSGLPRVSGYSIACEASSATSAKPGDPPPFIRRLSLAATSSSSASTAARGCRTNSFFEPSASASKAALHVNSGSGGDGGGGRARLGARPTDAPLSKAQAAIDYWTAASTTAGPSIWFAKDSASPWRALHVSSPKAAVHVTGSFGATLKSADGSSLAGCSARLTAAQLRVRWCGVTRNCSSLHASTRATANGGGAPRASANSVHGVHTAQLSIAACPASTPPRTEFVIEARAGIATSGGDSTGVAQQTDRALAPLNVASRRSLALFTSPFYADVAAPALSASAAALGATEAAALLPVMHQISTQRAAAAALALRQRKEDVRAQRQRRICHEVHNQVYMKAHEVRMRLLFGLSGTDSDAATPAPSGTLAQGHAVAPSAPSKAALGEDHIAADEEAYLQSLNPSKSDEEAKVLRVVASIDAALRRHLASAYKDASQPTFPSESSSADQRVRAADAVADHHHHHHFTDGFAARQPAILEAVIADATRRVESFTGELLPYQQEGVRWLLRLTAVEHMGGILADDMGLGKTAQTVVYLSCYKDMVERVVQGLLEELEQRHARLCQRALGLTVTATGSGALAREAGSVEEGEMPSWLTWCAEATAKGEYISRRTEGRLQRSSSTIQPLMRGVAHGDSIAASAPLAATVEPASTAATPELAAARAWWLHKTCEAGEAMAVAAGGGQGRGRHSCG” it is “not soluble”.

As for “MGSDKIHHHHHHMRYAFWNNKGGTGKTSLAFQSICRFAELNPHARILAIDVCPQANLSELMLGGLTNQGSARLMQRQGQVPRCSIGGYFQLRLPAPYTRPAFTASDFITTPNQYNPLIPGNIDLVCGDPLLELQANAVNTLANAQIPGTNTWIAVIDWISDFLESAEGYDYVFFDANPSFSIYTQIALSATNRVILPVMADDSSRRAIQNAFSLIYGLRLPSPIYATYNFATKLREAERPLPQVHLIPKNRLTQYMGPASAFYAVLAAIDQDVAGLLVQRPDLFTFADVADGVVDVRDFQTTGVVSYAKGAPFSQLRTGRLDIGGHRVRVDADMRQNCIDAIDGLVDRIE”, the “soluble on expression in E. coli” value is given as “not soluble”. The entry for “MGSDKIHHHHHHMVLPSMNKSVEAISNNHLQQPNKFPLINGLADVRDYYVANCLLFKLNKGSLRIENEFGEFIERSAPCLFLLEKDQTITLSMSEIEGHIDFSSLEVSYDLMQKFYKVFYSTRNYNDRELSLKTKPKYFFHADLLPGMSDTFDSILHGVACPRVCSNVSIDDHDYSYFSLMYLISAFVRKPGGFDFLERAIKITTKEKVYNIIISDLTRKWSQAEVAGKLFMSVSSLKRKLAAEEVSFSKIYLDARMNQAIKLLRMGAGNISQVATMCGYDTPSYFIAIFKRHFKITPLSFMRTMNH” is “not soluble”; for “PARLSTADKYTENPVSGVMAQLYSARSKNSWGMGDFNDLGLLAETLAPQADYLLINPLHAAEPMPPVEDSPYLPTTRRFINPIYIRIEDIPEHLLLDDDLQNDIAELAEKFTALNLTPEKIERNPIFDAKLQVLHAVFNVEREPAREQDFQDFIATEGQGLRDFASWCADQELAVLESSAAHAALPEKESLIQFYMWQQWICDQQLGAAQTRATD” it is “not soluble”. In the case of “MGSDKIHHHHHHMAAEIIAVTQQKGGVGKSTIAMHLGAAFHEKGRRVLVIDADGQNTLVHWSSSSADSESGIPFPVVNLAEAGSQIHREIKKFINDYDIIIVDCPPSITEKVSGVVLLAATIAVIPTSSSPADYWSSVGLVKLIQQAQVMNEDLRAVFLLNKTEEKRMLTRELKRALEELGFPLLKTQIPTREAYKQAMALGQTVLQMNDRGAKLAAAEIRACADEIVAMLP”, the “soluble on expression in E. coli” value is “not soluble”.

In the case of “MSEEHIAVTRFREYLRVNTEQPNPNYAACRDFLFKYADELGIARRSIETAPGVFLVIMTIPGSQPELPSIMLYSHTDVVPTFREHWTHDPYSAFKDEDGNIFARGAQDMKCVGVQQMEALRNLFAQGIRQWKRTIHLVWGPDEEIFGINGMKGFAKTDEFKKLNLGFSLDEGMPSDDDVYKVFYAERVAWWVKVTFPGNPGHGSQFMENTAMEKLERFLASARKFRNEQKVVLESNPNLTLGDVTTLNVNIVNGGVQFNVIPEKFEAYVDMRLTPHEDFNKIREMLDQWAKNAGEGVTYEFSQYSDQKPISAHTRDNSFWAAFEDSLNQENCKFEKGIMVASTDSRFVRYEGVNSINFSPMINTPFLPHDHNEYLNEKVFLRGLEIYQTIINNLGNV”, the “soluble on expression in E. coli” value is on record as “not soluble”. On to “MGHHHHHHSHMSPAPVIPSNTDYPGPHHFEVTFQQSSTAKSATWTYSPLLKKLYCQIAKTCPIQIKVSTPPPPGTAIRAMPVYKKAEHVTDVVKRCPNHELGRDFNEGQSAPASHLIRVEGNNLSQYVDDPVTGRQSVVVPYEPPQVGTEFTTILYNFMCNSSCVGGMNRRPILIIITLEMRDGQVLGRRSFEGRICACPGRDRKADEDHYREQQALNE”, for which the “soluble on expression in E. coli” value is on record as “soluble”. The entry for “MNYFNVGKIVNTQGLQGEMRVLSVTDFAEERFKKGAELVLFDEKDQFVQTVTIASHRKQKNFDIIKFKDMYHINTIEKYKGYSLKVAEEDLNDLDDGEFYYHEIIGLEVYEGDSLVGTIKEILQPGANDVWVVKRKGKRDLLLPYIPPVVLNVDIPSKRVDVEILEGLDDEDLEHHHHHH” is “soluble”. For the sequence “MSLIRKFSSKDLDAVEEIEREAFKTPYPTSLILGFWSMYPNCFYVAEIDGRVVGYILGSMDWGNGHIISLAVKKECRGLGIGTALLKTLENYYFNIANCNYIVLEVRVSNVLARRFYYRMGYRDRKLLPKYYEDGEDAILMIKKKPNAKGPLIITLWEGHHHHHH”, the “soluble on expression in E. coli” value is given as “soluble”. The entry for “MQKVCEKRIDSVVASAVEGSGMFYAVRFEPPPSKTCFDVTLKTYGPPYTEYIVTVAIPPKFPFSPPAITCKTDKNMKFLFLEENQWKPSTGIVAVLIEACSVISRRDLVPRAPVLPRIRPPQARTPTSASPAKSPQKAD” is “not soluble”; for “MSFLISFDKSKKHPAHLQLANNLKIALALEYASKNLKPEVDNDNAAMELRNTKEPFLLFDANAILRYVMDDFEGQTSDKYQFALASLQNLLYHKELPQQHVEVLTNKAIENYLVELKEPLTTTDLILFANVYALNSSLVHSKFPELPSKVHNAVALAKKH” it is “soluble”. The entry for “MGSDKIHHHHHHMSKVFIATANAGKAHDADIFSVSACNSFTVSCSGDGYLKVWDNKLLDNENPKDKSYSHFVHKSGLHHVDVLQAIERDAFELCLVATTSFSGDLLFYRITREDETKKVIFEKLDLLDSDMKKHSFWALKWGASNDRLLSHRLVATDVKGTTYIWKFHPFADESNSLTLNWSPTLELQGTVESPMTPSQFATSVDISERGLIATGFNNGTVQISELSTLRPLYNFESQHSMINNSNSIRSVKFSPQGSLLAIAHDSNSFGCITLYETEFGERIGSLSVPTHSSQASLGEFAHSSWVMSLSFNDSGETLCSAGWDGKLRFWDVKTKERITTLNMHCDDIEIEEDILAVDEHGDSLAEPGVFDVKFLKKGWRSGMGADLNESLCCVCLDRSIRWFREAGGK” is “not soluble”. “MGSDKIHHHHHHMPGSHNITKQTGASKMSSTRGAFFPDALMQQVKARFHHVDHDLDGRARLFFDNAGGSFRLKAAVDAYARIDALPDCPERIHERALDLQAIQSRGEDDVRTILNAQGGTVYASLTASGAMFDMVRAIMENVPGTNAVTTVLEHPSSYDAMTYYAERTGKTLRIAPSNPETGGVDVDAIVSLIDADTALLSVMFASNISGAKFDIEAIVARARQKKPGLFIVVDAVQHAPHGIIDLQRTPVDGINFAPYKFFGCRGSGISWLSPRAAALPHHRLAAKESGVWELGSPAPAQFAVVTSIVDYVKWIGRYFVDSDDRRTLFVEGMHRIELHERALLAALLDGCGGRRGLRSIDGVEVYWDHDDLTKRDLIVGIGFAHLEPTQAVREYEKHGVIVYERVASSLYSGRMLKSFRLAGAVRISPLHCHAPDDIARFLAITGTLAANR”: the “soluble on expression in E. coli” value was “not soluble”. The entry for “MTGAVCPGSFDPVTLGHVDIFERAAAQFDEVVVAILVNPAKTGMFDLDERIAMVKESTTHLPNLRVQVGHGLVVDFVRSCGMTAIVKGLRTGTDFEYELQMAQMNKHIAGVDTFFVATAPRYSFVSSSLAKEVAMLGGDVSELLPEPVNRRLRDRLN” is “soluble”; for “MGSDKIHHHHHHLRILNTAATGVRAQQTALDVLGNNMSNVNTPGYKAQRVNFAEALAAEMRPAEREFNGQPVGERIDVGAGVIYPTIDTDYRQGIIRETENPFDLAIDGEGFFPVRTANGESRYTRVGNFELDSQGKLVNSDGYILEVKIPADAMDLYVDETGNITGFIDDEERVLGRVVVNDPEGEGYPVGPIDMDELGRPLDWNGDILPTAFAVPEGAEDVQISTEGILSATIDGSRQTLGQINIITFANPEGLVRDGDNLYFAPDAAGVTGDELVGTPGSQVEERTLGKLKTQSLEQSNVNLASAMTEMIQVQRAYQLNARMITNGDQMWSMANSLRR” it is “not soluble”; for “MGSDKIHHHHHHMITEELQKLYQEYTGVPVENITELPSSGSNRRYFRLTGAKTLIGVCGTSVEENDAFLYMAAHFRKSGLPVPEVHIVSENKSYYLQEDLGDTLLFHAIEKGRATSVFSEEEKELLRKTVRLLPAIQFAGADGFDFSRCYPQPEFNQRSILWDLNYFKYCFLKATGMEFQEDKLEDDFQKMSDVLLRSSSATFMYRDFQSRNVMIKDGEPWFIDFQGGRKGPFYYDVASFLWQAKAKYPDSLRQELLKEYIDALRKYQPIDEPYFYSQLRHFVLFRTLQVLGAYGFRGYFEKKPHFIQSVPFAIQNLRDLLKEAYPEYPYLCNVLRELTELKQFTDDLKKRQLTVKVMSFAYKKGIPDDPTGNGGGYVFDCRAVNNPGKYERYKPFTGLDEPVISFLEEDGEILRFLDSVYALVDASVKRYMERGFSNLSVCFGCTGGQHRSVYSAQHLAEHLNRKFGVKVELVHREQNIERTFEATV” it is “not soluble”. The entry for “MEKKTIVLGVIGSDCHAVGNKILDHAFTNAGFNVVNIGVLSPQEVFIKAAIETKADAILLSSLYGQGEIDCKGLRQKCDEAGLEGILLYVGGNIVVGKQHWPDVEKRFKDMGYDRVYAPGTPPEVGIADLKKDLNIE” is “soluble”.
